# Source: PMC10397247
# T1: 4H2931-bN
# T1 chain: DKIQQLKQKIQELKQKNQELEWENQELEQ
# T2: 4H3041-bN
# T2 chain: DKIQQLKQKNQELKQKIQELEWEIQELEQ
# T3: 4H3297-bN
# T3 chain: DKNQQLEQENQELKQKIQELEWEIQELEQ
# T4: 4H3364-bN
# T4 chain: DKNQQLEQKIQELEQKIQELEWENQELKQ
# T5: 4H3381-bN
# T5 chain: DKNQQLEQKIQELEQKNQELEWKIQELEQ
# T6: 4H349-bN
# T6 chain: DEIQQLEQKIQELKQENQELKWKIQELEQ
# T7: 4H56-bN
# T7 chain: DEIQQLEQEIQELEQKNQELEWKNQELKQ
# T8: 4H730-bN
# T8 chain: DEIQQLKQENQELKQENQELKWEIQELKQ
# T9: 4H796-bN
# T9 chain: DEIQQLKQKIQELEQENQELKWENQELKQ
# T10: 4H932-bN
# T10 chain: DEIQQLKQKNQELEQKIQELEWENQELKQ
# T11: 4H949-bN
# T11 chain: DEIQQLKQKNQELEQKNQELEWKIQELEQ
# T12: 4H2931-bH
# T12 chain: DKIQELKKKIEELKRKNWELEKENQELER
# T13: 4H3041-bH
# T13 chain: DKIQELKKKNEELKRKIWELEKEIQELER
# T14: 4H3297-bH
# T14 chain: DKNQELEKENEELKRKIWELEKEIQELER
# T15: 4H3364-bH
# T15 chain: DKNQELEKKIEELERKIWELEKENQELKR
# T16: 4H3381-bH
# T16 chain: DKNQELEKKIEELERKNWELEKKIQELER
# T17: 4H349-bH
# T17 chain: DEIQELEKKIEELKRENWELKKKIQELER
# T18: 4H56-bH
# T18 chain: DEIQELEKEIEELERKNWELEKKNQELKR
# T19: 4H730-bH
# T19 chain: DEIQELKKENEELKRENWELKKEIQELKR
# T20: 4H796-bH
# T20 chain: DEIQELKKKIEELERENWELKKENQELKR
# T21: 4H949-bH
# T21 chain: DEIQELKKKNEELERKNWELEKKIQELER
# T22: 4H607-bN
# T22 chain: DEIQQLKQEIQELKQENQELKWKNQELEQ
# T23: 4H687-bN
# T23 chain: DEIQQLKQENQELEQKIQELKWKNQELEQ
# T24: 4H717-bN
# T24 chain: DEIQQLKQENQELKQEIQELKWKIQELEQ
# T25: 4H72-bN
# T25 chain: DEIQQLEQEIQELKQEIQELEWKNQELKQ
# T26: 4H754-bN
# T26 chain: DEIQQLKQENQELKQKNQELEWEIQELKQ
# T27: 4H797-bN
# T27 chain: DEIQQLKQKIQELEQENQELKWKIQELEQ
# T28: 4H883-bN
# T28 chain: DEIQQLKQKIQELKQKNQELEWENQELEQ
# T29: 4H908-bN
# T29 chain: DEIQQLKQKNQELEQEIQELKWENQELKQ
# T30: 4H918-bN
# T30 chain: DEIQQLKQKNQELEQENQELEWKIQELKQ
# T31: 4H953-bN
# T31 chain: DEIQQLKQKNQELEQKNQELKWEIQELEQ
# T32: 4H967-bN
# T32 chain: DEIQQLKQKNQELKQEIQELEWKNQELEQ
# T33: P8SHb
# T33 chain: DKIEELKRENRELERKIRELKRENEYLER
# Key:
# Experiment in all cases: two-hybrid library CCNG1;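 note: natural log of median RNA to DNA barcode read ratio; higher means stronger binding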
# 4H2931-bN = target: T1, 4H2931-bN
# 4H3041-bN = target: T2, 4H3041-bN
# 4H3297-bN = target: T3, 4H3297-bN
# 4H3364-bN = target: T4, 4H3364-bN
# 4H3381-bN = target: T5, 4H3381-bN
# 4H349-bN = target: T6, 4H349-bN
# 4H56-bN = target: T7, 4H56-bN
# 4H730-bN = target: T8, 4H730-bN
# 4H796-bN = target: T9, 4H796-bN
# 4H932-bN = target: T10, 4H932-bN
# 4H949-bN = target: T11, 4H949-bN
# 4H2931-bH = target: T12, 4H2931-bH
# 4H3041-bH = target: T13, 4H3041-bH
# 4H3297-bH = target: T14, 4H3297-bH
# 4H3364-bH = target: T15, 4H3364-bH
# 4H3381-bH = target: T16, 4H3381-bH
# 4H349-bH = target: T17, 4H349-bH
# 4H56-bH = target: T18, 4H56-bH
# 4H730-bH = target: T19, 4H730-bH
# 4H796-bH = target: T20, 4H796-bH
# 4H949-bH = target: T21, 4H949-bH
# 4H607-bN = target: T22, 4H607-bN
# 4H687-bN = target: T23, 4H687-bN
# 4H717-bN = target: T24, 4H717-bN
# 4H72-bN = target: T25, 4H72-bN
# 4H754-bN = target: T26, 4H754-bN
# 4H797-bN = target: T27, 4H797-bN
# 4H883-bN = target: T28, 4H883-bN
# 4H908-bN = target: T29, 4H908-bN
# 4H918-bN = target: T30, 4H918-bN
# 4H953-bN = target: T31, 4H953-bN
# 4H967-bN = target: T32, 4H967-bN
# P8SHb = target: T33, P8SHb
binder,measurement,setting,value
DKIQQLKQKIQELKQKNQELEWENQELEQ [4H2931-bN],interaction score,4H2931-bN,-0.656
same,interaction score,4H3041-bN,-0.593
same,interaction score,4H3297-bN,-0.835
same,interaction score,4H3364-bN,-0.721
same,interaction score,4H3381-bN,-1.1
same,interaction score,4H349-bN,-1.08
same,interaction score,4H56-bN,0.0366
same,interaction score,4H730-bN,-1.27
same,interaction score,4H796-bN,-1.66
same,interaction score,4H932-bN,-0.619
same,interaction score,4H949-bN,-0.75
DKIQELKKKIEELKRKNWELEKENQELER [4H2931-bH],interaction score,4H2931-bH,-0.492
same,interaction score,4H3041-bH,-0.279
same,interaction score,4H3297-bH,0.571
same,interaction score,4H3364-bH,-0.507
same,interaction score,4H3381-bH,-0.508
same,interaction score,4H349-bH,-0.83
same,interaction score,4H56-bH,-0.623
same,interaction score,4H730-bH,-0.532
same,interaction score,4H796-bH,-0.865
same,interaction score,4H949-bH,-0.384
DEIQQLKQEIQELKQENQELKWKNQELEQ [4H607-bN],interaction score,4H607-bN,0.145
same,interaction score,4H687-bN,-1.48
same,interaction score,4H717-bN,-1.11
same,interaction score,4H72-bN,-1.65
same,interaction score,4H754-bN,-1.32
same,interaction score,4H797-bN,-0.52
same,interaction score,4H883-bN,-0.644
same,interaction score,4H908-bN,-0.294
same,interaction score,4H918-bN,0.0461
same,interaction score,4H953-bN,-1.56
same,interaction score,4H967-bN,-0.227
same,interaction score,P8SHb,-1.61
